# Experimental data from EP4775675A1 (Shanghai Hongcheng Biopharmaceutical Co., Ltd., dated 2026).
# Changes are numbered by the printed parent chain.
# T1: human BDCA-2 on cells (Jurkat-hBDCA-2 cells; human pDCs; human PBMCs) (human, UniProt Q8WTT0 1-213)
# T1 sequence (looked up): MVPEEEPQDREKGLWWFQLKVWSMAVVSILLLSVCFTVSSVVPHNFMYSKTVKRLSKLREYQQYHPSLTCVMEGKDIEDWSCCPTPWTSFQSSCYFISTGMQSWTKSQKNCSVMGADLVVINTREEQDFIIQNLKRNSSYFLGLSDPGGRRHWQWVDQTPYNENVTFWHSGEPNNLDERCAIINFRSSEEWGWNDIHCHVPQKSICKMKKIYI
# T2: human CLEC4A (human, UniProt Q9UMR7 70-237, limits assumed)
# T2 sequence (looked up): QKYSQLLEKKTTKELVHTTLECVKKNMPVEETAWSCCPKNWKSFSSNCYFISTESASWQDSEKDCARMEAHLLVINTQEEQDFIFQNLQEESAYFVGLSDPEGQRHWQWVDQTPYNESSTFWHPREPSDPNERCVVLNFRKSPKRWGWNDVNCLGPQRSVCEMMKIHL
# T3: human CLEC4E (human, UniProt Q9ULY5 41-219, limits assumed)
# T3 sequence (looked up): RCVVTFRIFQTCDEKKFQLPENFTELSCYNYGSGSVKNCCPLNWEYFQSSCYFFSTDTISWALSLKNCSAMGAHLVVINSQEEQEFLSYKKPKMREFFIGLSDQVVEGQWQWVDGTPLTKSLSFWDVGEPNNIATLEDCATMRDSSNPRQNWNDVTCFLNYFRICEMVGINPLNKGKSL
# T4: human CLEC4D (human, UniProt Q8WXI8 39-215, limits assumed)
# T4 sequence (looked up): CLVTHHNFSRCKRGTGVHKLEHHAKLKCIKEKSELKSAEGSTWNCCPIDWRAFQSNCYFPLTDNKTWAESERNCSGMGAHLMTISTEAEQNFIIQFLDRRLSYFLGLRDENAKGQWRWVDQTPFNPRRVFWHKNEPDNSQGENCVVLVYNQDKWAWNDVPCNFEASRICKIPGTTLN
# T5: human CLEC6A (human, UniProt Q6EIG7 42-209, limits assumed)
# T5 sequence (looked up): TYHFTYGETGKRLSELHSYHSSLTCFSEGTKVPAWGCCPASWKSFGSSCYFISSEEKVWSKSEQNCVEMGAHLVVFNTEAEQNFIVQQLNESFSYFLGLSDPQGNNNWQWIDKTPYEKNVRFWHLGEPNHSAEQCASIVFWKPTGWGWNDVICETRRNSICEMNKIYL
# T6: cynomolgus monkey BDCA-2 on cells (Jurkat-cynoBDCA-2 cells; cynomolgus monkey pDCs) (cynomolgus monkey, UniProt A0A2K5UWP4 1-212)
# T6 construct: whole, on cells
# T6 sequence: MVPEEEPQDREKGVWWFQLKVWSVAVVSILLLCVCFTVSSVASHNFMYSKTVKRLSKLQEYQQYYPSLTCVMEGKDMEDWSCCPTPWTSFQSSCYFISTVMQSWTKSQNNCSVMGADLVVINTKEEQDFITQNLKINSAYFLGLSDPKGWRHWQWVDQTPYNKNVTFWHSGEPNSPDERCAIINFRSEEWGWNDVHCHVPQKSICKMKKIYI
# T7: Human BDCA-2 protein (soluble, Octet analyte) (human, UniProt Q8WTT0 45-213, limits assumed)
# T7 construct: Soluble protein used as analyte in BLI
# T7 sequence (looked up): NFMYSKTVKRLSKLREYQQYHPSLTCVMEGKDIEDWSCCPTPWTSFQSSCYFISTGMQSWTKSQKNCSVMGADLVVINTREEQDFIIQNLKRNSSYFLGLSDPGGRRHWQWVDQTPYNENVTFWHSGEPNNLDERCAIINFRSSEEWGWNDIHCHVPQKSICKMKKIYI
# B1: 17G6A2 (murine hybridoma monoclonal antibody) (antibody, V domains shown)
# VH: EVQLVESGGDLVKPGGSLKLSCAASGFTFSSYGMSWVRQTPDKRLEWVATISSGDSYTYYPDSVKGRFTISRDNAKNTLYLQMSSLKSEDTAMYYCARQLYYSYGYYFDYWGQGTTLTVSS
# VL: DIVLTQSPASLAVSLGQRATISCRASESVSFHGTHLMHWYQQKPGQPPKLLIYAASNLESGVPARFSGSGSETDFTLNIHPVEEEDAATYFCQQSIEDPPTFGGGTKLEIK
# notes: also called hybridoma 17G6A2; hybridoma antibody 17G6A2
# B2: 17G6A2_hzH2L5_hIgG1 (antibody, V domains shown)
# VH: EVQLVESGGGLVKPGGSLRLSCAASGFTFSSYGMSWVRQAPGKGLEWVATISSGDSYTYYPDSVKGRFTISRDNAKNSLYLQMNSLRAEDTAVYYCARQLYYSYGYYFDYWGQGTTVTVSS
# VL: DIVLTQSPASLAVSPGQRATITCRASESVSFHGTHLMHWYQQKPGQPPKLLIYAASNLESGVPARFSGSGSGTDFTLTINPVEAEDTANYYCQQSIEDPPTFGGGTKVEIKR
# notes: Humanized, human IgG1/kappa (hzVH02 + hzVL05)
# B3: 17G6A2_hzH3L5_hIgG1 (antibody, V domains shown)
# VH: B2 VH with G44R
# VL: B2 VL
# notes: Humanized, human IgG1/kappa (hzVH03 + hzVL05)
# B4: 17G6A2_hzH1L8_hIgG1 (antibody, V domains shown)
# VH: B2 VH with A49S
# VL: B2 VL with G72E, E85N, T87A
# notes: Humanized, human IgG1/kappa (hzVH01 + hzVL08); also called 17G6A2_hzHL8_hIgG1
# B5: 17G6A2_hzH2L8_hIgG1 (antibody, V domains shown)
# VH: B2 VH
# VL: B2 VL with G72E, E85N, T87A
# notes: Humanized, human IgG1/kappa (hzVH02 + hzVL08)
# B6: 17G6A2_hzH3L6_hIgG1 (antibody, V domains shown)
# VH: B2 VH with G44R
# VL: B2 VL with E85N, T87A
# notes: Humanized, human IgG1/kappa (hzVH03 + hzVL06)
# B7: 17G6A2_hzH3L7_hIgG1 (antibody, V domains shown)
# VH: B2 VH with G44R
# VL: B2 VL with G72E
# notes: Humanized, human IgG1/kappa (hzVH03 + hzVL07)
# B8: 17G6A2_hzH2L7_hIgG1 (antibody, V domains shown)
# VH: B2 VH
# VL: B2 VL with G72E
# notes: Humanized, human IgG1/kappa (hzVH02 + hzVL07)
# B9: 17G6A2_hzH3L8_hIgG1 (antibody, V domains shown)
# VH: B2 VH with G44R
# VL: B2 VL with G72E, E85N, T87A
# notes: Humanized, human IgG1/kappa (hzVH03 + hzVL08)
# B10: 17G6A2_hzH2L6_hIgG1 (antibody, V domains shown)
# VH: B2 VH
# VL: B2 VL with E85N, T87A
# notes: Humanized, human IgG1/kappa (hzVH02 + hzVL06)
# B11: 164C11B8_hzH1L1_hIgG1 (antibody, V domains shown)
# VH: EVQLLESGGGLVQPGGSLRLSCAASGFTFSTYTMSWVRQAPGKGLEWVSTINSGGDNTYYPDSVKGRFTISRDNSKNTLYLQMNSLRAEDTAVYYCATYRPYYYGSVLDYWGQGTTVTVSS
# VL: DIVMTQSPDSLAVSLGERATINCKASQSVDYDGNSYVNWYQQKPGQPPKLLIYGASNLESGVPDRFSGSGSGTDFTLTISSLQAEDVAVYYCQQSDEDPWTFGGGTKVEIKR
# B12: 164C11B8_hzH4L1_hIgG1 (antibody, V domains shown)
# VH: B11 VH with F27I, G44R, S49A
# VL: B11 VL
# B13: 164C11B8_hzH2L1_hIgG1 (antibody, V domains shown)
# VH: B11 VH with S49A
# VL: B11 VL
# B14: 164C11B8_hzH3L1_hIgG1 (antibody, V domains shown)
# VH: B11 VH with F27I, S49A
# VL: B11 VL
# Target: T1, human BDCA-2 on cells (Jurkat-hBDCA-2 …)
# Experiment: cell-based or functional assay
row,"EC50, inhibition of CpGA-induced type I interferon (IFNα) production in human PBMC cells",Binder
1,0.0542 mg/L,B1

# Target: T1, human BDCA-2 on cells (Jurkat-hBDCA-2 …)
# Experiment: cell-based or functional assay
# Remark: another data set of the same source
row,"EC50, inhibition of CpGA-induced type I interferon (IFNα) production in human PBMC cells",Binder
1,0.0014 mg/L,B2
2,0.0014 mg/L,B3
3,0.0011 mg/L,B4
4,0.0011 mg/L,B5
5,0.0017 mg/L,B6
6,0.0011 mg/L,B7
7,0.0011 mg/L,B8
8,0.0011 mg/L,B9
9,0.0017 mg/L,B10

# Target: T2, human CLEC4A
# Experiment: ELISA, coated protein 1 µg/ml
row,binding result,Binder
1,no binding (tested: 10 µg/ml),B2
2,no binding (tested: 10 µg/ml),B3
3,no binding (tested: 10 µg/ml),B4
4,no binding (tested: 10 µg/ml),B5
5,no binding (tested: 10 µg/ml),B6
6,no binding (tested: 10 µg/ml),B7
7,no binding (tested: 10 µg/ml),B8
8,no binding (tested: 10 µg/ml),B9
9,no binding (tested: 10 µg/ml),B10

# Target: T3, human CLEC4E
# Experiment: ELISA, coated protein 1 µg/ml
row,binding result,Binder
1,no binding (tested: 10 µg/ml),B2
2,no binding (tested: 10 µg/ml),B3
3,no binding (tested: 10 µg/ml),B4
4,no binding (tested: 10 µg/ml),B5
5,no binding (tested: 10 µg/ml),B6
6,no binding (tested: 10 µg/ml),B7
7,no binding (tested: 10 µg/ml),B8
8,no binding (tested: 10 µg/ml),B9
9,no binding (tested: 10 µg/ml),B10

# Target: T4, human CLEC4D
# Experiment: ELISA, coated protein 1 µg/ml
row,binding result,Binder
1,no binding (tested: 10 µg/ml),B2
2,no binding (tested: 10 µg/ml),B3
3,no binding (tested: 10 µg/ml),B4
4,no binding (tested: 10 µg/ml),B5
5,no binding (tested: 10 µg/ml),B6
6,no binding (tested: 10 µg/ml),B7
7,no binding (tested: 10 µg/ml),B8
8,no binding (tested: 10 µg/ml),B9
9,no binding (tested: 10 µg/ml),B10

# Target: T5, human CLEC6A
# Experiment: ELISA, coated protein 1 µg/ml
row,binding result,Binder
1,no binding (tested: 10 µg/ml),B2
2,no binding (tested: 10 µg/ml),B3
3,no binding (tested: 10 µg/ml),B4
4,no binding (tested: 10 µg/ml),B5
5,no binding (tested: 10 µg/ml),B6
6,no binding (tested: 10 µg/ml),B7
7,no binding (tested: 10 µg/ml),B8
8,no binding (tested: 10 µg/ml),B9
9,no binding (tested: 10 µg/ml),B10

# Target: T1, human BDCA-2 on cells (Jurkat-hBDCA-2 …)
# Experiment: flow cytometry on Jurkat-hBDCA-2 cells
row,EC50,Binder
1,0.0968 mg/L,B1

# Target: T1, human BDCA-2 on cells (Jurkat-hBDCA-2 …)
# Experiment: flow cytometry on Jurkat-hBDCA-2 cells
# Remark: another data set of the same source
row,EC50,Binder
1,0.18 mg/L,B2
2,0.066 mg/L,B3
3,0.0442 mg/L,B4
4,0.0222 mg/L,B5
5,0.0831 mg/L,B6
6,0.0583 mg/L,B7
7,0.0608 mg/L,B8
8,0.0456 mg/L,B9
9,0.0701 mg/L,B10
10,0.0429 mg/L,B11
11,0.191 mg/L,B12
12,0.104 mg/L,B13
13,0.0675 mg/L,B14

# Target: T6, cynomolgus monkey BDCA-2 on cells …
# Experiment: flow cytometry on Jurkat-cynoBDCA-2 cells
row,EC50,Binder
1,0.107 mg/L,B1

# Target: T6, cynomolgus monkey BDCA-2 on cells …
# Experiment: flow cytometry on Jurkat-cynoBDCA-2 cells
# Remark: another data set of the same source
row,EC50,Binder
1,0.0943 mg/L,B2
2,0.101 mg/L,B3
3,0.0781 mg/L,B4
4,0.0383 mg/L,B5
5,0.0663 mg/L,B6
6,0.0975 mg/L,B7
7,0.0988 mg/L,B8
8,0.0688 mg/L,B9
9,0.106 mg/L,B10
10,0.158 mg/L,B11
11,0.31 mg/L,B12
12,0.252 mg/L,B13

# Target: T7, Human BDCA-2 protein (soluble, Octet …)
# Experiment: BLI (Octet Red96e), antibody on anti-human IgG sensor, human BDCA-2 protein in solution
Kd,koff,kon,Binder
3.2 nM,0.000567 s⁻¹,176000 M⁻¹ s⁻¹,B2
6.3 nM,0.000872 s⁻¹,138000 M⁻¹ s⁻¹,B4
1.7 nM,0.000261 s⁻¹,154000 M⁻¹ s⁻¹,B5
1.8 nM,0.000311 s⁻¹,174000 M⁻¹ s⁻¹,B8
3 nM,0.000309 s⁻¹,101000 M⁻¹ s⁻¹,B10
